The values below come from paper doi:10.1101/2024.06.25.600625 (bioRxiv, 2024).

To fix the notation:
B1: C-terminally FlAsH-labeled p23 (natural protein)
chain: MQPASAKWYDRRDYVFIEFCVEDSKDVNVNFEKSKLTFSCLGGSDNFKHLNEIDLFHCIDPNDSKHKRTDRSILCCLRKGESGQSWPRLTKERAKLNWLSVDFNNWKDWEDDSDEDMSNFDRFSEMMNNMGGDEDVDLPEVDGADDDSQDSDDEKMPDLE
modifications: FlAsH-EDT2 label on the C-terminal tetra-cysteine tag
B3: human Hsp90α Y38F,Y61E,Y197E (natural protein)
chain: not shown
B4: human Hsp90α Y38E,Y61F,Y197E (natural protein)
chain: not shown
B5: human Hsp90α Y38F,Y61F,Y197E (natural protein)
chain: not shown

Assay in all cases: fluorescence polarisation
(In general: Polarisation of emitted light reports the rotation of a fluorescent probe.)

For test [1], the target named is wild-type human Hsp90α (human, UniProt P07900 1-732).
For test [2], the target named is B3.
For test [3], the target named is B4.
For test [4], the target named is human Hsp90α Y38F (human, UniProt P07900 1-732, Y38F).
The target in test [5] is human Hsp90α Y61E (human, UniProt P07900 1-732, Y61E).
The target of test [6] is human Hsp90α Y61F (human, UniProt P07900 1-732, Y61F).
Test [7] concerns the target human Hsp90α Y197E (human, UniProt P07900 1-732, Y197E).
Test [8] deals with human Hsp90α Y197F (human, UniProt P07900 1-732, Y197F).
In test [9] the target is B5.
For test [10], the target named is human Hsp90α Y38F,Y61F,Y197F (human, UniProt P07900 1-732, Y38F | Y61F | Y197F).
The target in test [11] is T1, N-terminally FlAsH-labeled CDC37 (UniProt Q16543 1-378, FlAsH-EDT2 label on the N-terminal tetra-cysteine tag).
T1 sequence: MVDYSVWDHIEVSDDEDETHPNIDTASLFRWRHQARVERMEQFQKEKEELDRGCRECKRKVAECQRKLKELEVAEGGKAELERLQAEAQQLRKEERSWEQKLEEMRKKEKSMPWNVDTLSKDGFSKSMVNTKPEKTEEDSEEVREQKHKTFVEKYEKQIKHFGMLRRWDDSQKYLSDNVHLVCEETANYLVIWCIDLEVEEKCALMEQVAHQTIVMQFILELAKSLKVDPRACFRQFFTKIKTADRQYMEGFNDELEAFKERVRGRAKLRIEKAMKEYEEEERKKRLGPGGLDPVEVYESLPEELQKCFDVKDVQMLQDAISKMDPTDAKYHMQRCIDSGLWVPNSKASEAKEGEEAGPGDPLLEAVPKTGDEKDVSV

Test [12] concerns the target B1.

In the case of B1, the binding result in [1], in test [2], in test [3], in [4], in test [5] and in test [6] was “binds” each time. The binding result in [7], in test [8], in [9] and in test [10] was “binds” in each case.

B2: unlabeled p23 (natural protein)
chain: MQPASAKWYDRRDYVFIEFCVEDSKDVNVNFEKSKLTFSCLGGSDNFKHLNEIDLFHCIDPNDSKHKRTDRSILCCLRKGESGQSWPRLTKERAKLNWLSVDFNNWKDWEDDSDEDMSNFDRFSEMMNNMGGDEDVDLPEVDGADDDSQDSDDEKMPDLE
Take B2: the binding result in test [1] is given as “binds”.
As for B3, the “fold increase of KD against all other Hsp90 variants” value in [11] came out at 2 fold.
As to B4, the “fold increase of KD against all other Hsp90 variants” value in test [11] worked out at 2 fold.
The same measure, in the same setting: to B5 belongs 2 fold.

B6: human Hsp90α Y38E (natural protein)
chain: not shown
Take B6: the “fold increase of KD (reference not named, wild type implied)” value in test [12] is 3.5 fold.
